Experimental data published in the DeepSol protein solubility set.

Experiment: soluble on expression in E. coli; label from the status in PepcDB or PDB records

| Sequence | soluble on expression in E. coli |
| --- | --- |
| MPDIFQQEARGWLRCGAPPFAGAVAGLTTKHGGESKGPFASLNMGLHVGDDRTDVVNNRRRLAEWLAFPLERWVCCEQVHGADIQKVTKSDRGNGAQDFATAVPGVDGLYTDEAGVLLALCFADCVPIYFVAPSAGLVGLAHAGWRGTAGGIAGHMVWLWQTREHIAPSDIYVAIGPAIGPCCYTVDDRVVDSLRPTLPPESPLPWRETSPGQYALDLKEANRLQLLAAGVPNSHIYVSERCTSCEEALFFSHRRDRGTTGRMLAFIGRREEWT | soluble |
| MPDRTTDDFGPFTEQIRGTIDGMGTAEFDALPVGAIQVDGSGVIHRYNRTESRLSGRIPERVIGRNFFTEVAPCTNIPAFSGRFMDGVTSGTLDARFDFVFDFQMAPVRVQIRMQNAGVPDRYWIFVRK | soluble |
| MPDSPTPGRRERKKAATRQAIADAALQLFLEHGFDRVSVRDVAERADVSTTTLFAHFPSKESLVFDREQEVDAALAAAVRERPDGQGVVEALRAHALESWVPIVTDPRRARFTALVSDTPALREYSERMWMRHADTLSTVIAEELDREPDDSACAALARFVLEIPALTTGRHDPRATVETVFDLLLHGWRSQAGPRPPQADGR | not soluble |
| MPEYKAPLRDMRFLIDEVFDFHGRYQALGASDATPDMVAAILDEGSKFCEQVLAPLNRSGDEEGCHFDNGVVTTPKGFKEAYAQYVEGGWNGVASDPAYGGQGLPHSLGLLLSEMIGASNVSWGMYPGLTRGAMSAIHAHGSQAQKDLYLARMTAGTWTGTMCLTEPHCGTDLGIIKTRAVPNADGSHAISGTKIFISAGEHDLSENIVHLVLAKLPDAPAGTKGISLFIVPKFLPDAEGNVGARNAVSCGSIEHKMGIKASATCVMNFDGATGYLIGEPNKGLHCMFTMMNHARLGTGMQGLCLGETSYQGAVRYARERLQMRSLTGPKAPDKPADPIIVHPDVRRMLLTMKAFNEGNRALAYFTAQLLDTEHLSQDAAERERAADLLAFLTPICKAFMTETGQEVTNLGMQVYGGHGYIREWGMEQLVRDCRIAQIYEGTNGIQALDLLGRKVLGSQGKLLRGFTKLVHQLCQAQAEHPQLKGQVAQLAALNAQWGELTQQVGLAAMKNADEVGAASVDYLMFSGYVTLAYFWLRIALVAREKLDAGSGEAAFYEAKLATADFYFSR | not soluble |
| MPFHIGSGCLPAIISNRRIYRIAWSDTPPEMSSWEKMKEFFCSTHQAEALECIWTICHPPAGTTREDVVSRFELLRTLAYDGWEENIHSGLHGENYFCILDEDSQEILSVTLDDVGNYTVNCQGYSETHHLTMATEPGVERTDITYNLTSDIDAAAYLEELKQNPIINNKIMNPVGQCESLMTPVSNFMNEKGFDNIRYRGIFIWDKPTEEIPTNHFAVVGNKEGKDYVFDVSAHQFENRGMSNLNGPLILSADEWVCKYRMATRRKLIYYTDFSNSSIAANAYDALPRELESESMAGKVFVTSPRWFNTFKKQKYSLIGKM | not soluble |
| MPFHLALGLSNCEQIYEPGGTIEGYVTFDLRESVKVKAIRISAEGLATTKWLLSESSKSSHGRSREVSYSAKVTYLDEEQMVWKPSEGHSKSSVFPGIHVYPFKFQIPIGVPPSFEGDHGNIRYHMKATVERPWKTNRSVTRYLTILPPKDLNKEVLASEETSSWKSKKIRIPKKGYVPGETISIETNIDNMSSRPILKTECYLIQQCRFLAYRYGISGPTDGRRASSLSENDRYLSRKRDEIKIVSVIHEMHIEPRTEHKAKMRLKIPCTCPTFDSTLIHVEYFVVVKLHVKCRMRNTVKAECPIIIGSKPLADEHVDPRTPTYQEVATFSALTHRSMMSVDEKLTPKYVYYPKYGKSRDDEADEPPSLTDLQLPPIDSLSDDD | not soluble |
| MPFKLSPDCIVLAEPEKLHYPGDTVSGHIVLKFEKFSTCRAITLTVKGKAETGWDNVTKVGQWTYFNESGVLWKAEMSENRIEPGTHRIPFDYTVPENIPQSFEGPFGFIRFYIKVHMDRPHALDQCVKKEFLVTQKPTVVSKKHLGPEHIIRYCQKLNCNRGEIYFEAQLSNRIIFFDDPISLIIKIKNCSSRTIKKISLEAFQRIEYYSTTSACRKTHSVLIGKTGKSELKIRNDEIAISTFSMKFKEPATPSFASELIQVSYVLLVNLFTDGFWAAPLVFPVEFEVGKKSDVGTEDEETCDGLINFDED | not soluble |
| MPGLEKTRIVDPILTNVAIGYKNAEYVGESLFPVVPVDKEQGKIPKWGAEAFRIYNTRRQIRSKTNRIEMDATTVPYSLEEEALEAPIDDRELEEAAEVLKLEMSRTKMLTDNIRLKMEKDQADVAQNVANYSPGHVEALSGTDKFSDPASKPIDVIGDARATVRSKIGIYPNVLLMGASVYEVLKNHSAIIDKIKYSQKGIATPTCSQKSST | not soluble |
| MPGLLLCEPTELYNILNQATKLSRLTDPNYLCLLDVRSKWEYDESHVITALRVKKKNNEYLLPESVDLECVKYCVVYDNNSSTLEILLKDDDDDSDSDGDGKDLVPQAAIEYGRILTRLTHHPVYILKGGYERFSGTYHFLRTQKIIWMPQELDAFQPYPIEIVPGKVFVGNFSQACDPKIQKDLKIKAHVNVSMDTGPFFAGDADKLLHIRIEDSPEAQILPFLRHMCHFIEIHHHLGSVILIFSTQGISRSCAAIIAYLMHSNEQTLQRSWAYVKKCKNNMCPNRGLVSQLLEWEKTILGDSITNIMDPLY | soluble |
| MPHLALLISKGAIMDRIIQSPGKYIQGADVINRLGEYLKPLAERWLVVGDKFVLGFAQSTVEKSFKDAGLVVEIAPFGGECSQNEIDRLRGIAETAQCGAILGIGGGKTLDTAKALAHFMGVPVAIAPTIASTDAPCSALSVIYTDEGEFDRYLLLPNNPNMVIVDTKIVAGAPARLLAAGIGDALATWFEARACSRSGATTMAGGKCTQAALALAELCYNTLLEEGEKAMLAAEQHVVTPALERVIEANTYLSGVGFESGGLAAAHAVHNGLTAIPDAHHYYHGEKVAFGTLTQLVLENAPVEEIETVAALSHAVGLPITLAQLDIKEDVPAKMRIVAEAACAEGETIHNMPGGATPDQVYAALLVADQYGQRFLQEWE | not soluble |
| MPIEIERRFLIGNDNWRQYADEPLLLRQGYLSVEKERTVRVRIAGKQAWLTLKGYISEISRSEFEYEIPLADAEKMMETMCPFKMEKWRYPVRWGGSLFEIDVFLGDNAPLVVAEIELPDENADFDRPDWLGREITADGMFTNAYLSRHPFSSWKNAV | not soluble |
| MPIIASESSHESIPQDFMDAVESMHKAQLRPEISLGTIRPPQRLAPFSHAVGLEVSGTLSDDSQGDAFGRLILLHDPTSDESWDGSMRLVAYIQADMDASVANDPLLPDVAWQWLTEALDKTHADHTNLGGTVTATASVRFGEIGGPPRAYQVEMRASWTATAIDLAPHVSAFAQVLANVAGLSPEGTTSISR | not soluble |
| MPILFDCNAIASQVLKDEASALLESVGQFQKPNDLEAIVKLILKSQENGGKLVIVGVGKSALVAQKIVASMLSTGNRSAFLHPTEAMHGDLGMVEKNDVVLMISYGGESLELLNLVSHLKRLSHKIITFTKSPNSSLSKLGDYYLSLKIQKEACPINTAPTTSTTLTLALGDVLMACLMRAKNFSQEDFASFHPGGLLGKKLFVKVKDLLQTTNLPLIAPSTSFKDALIEMSEKRLGSAILVNEANELVGVLSDGDVRRALLKGVSLKSEVRHFATLKPKSFKNLDALLLEALEFLERHKIQLLVCVDDHNKVLGVLHLHQLLELGLKA | not soluble |
| MPINGIKIKNSSGEEVYVLKEKGSVVNFGREKKVCHITFDPHAARVSRIHASIEWGDEGLFFTDKSKEGTEINGTRLKQSSQELHEGVYQLAIGGISMTLEVDGDELEETVIDSPQPDESSTVPETVYEESRYSNSSIKEMPAVEVTDDE | not soluble |
| MPKASLIIRERGLPKREVLLSPDRQWTIGRQLDCSIRLTDAYVSRLHAVINAFLFRGQPLYFIRDAHSRNGTFLNGFPLQHSTLLHHEDVIGVGTTLLVFYYPDMFREISLDECPLEHHHHHH | soluble |
| MPKDKKKDEVTEVEHVDRNISSFSQISHLIDAEIITRLTLSHNKLTSVPPNIADLVSLQSLNLWNNQIEDLPPSISSLPKLRILNVGMNKLSILPRGFGSFPELEILDLTYNNLSERSLPGNFFFMQTLRALYLGDNDFEMLPGDVENLTNLQILVLRENDLLTLPKELGKLTRLRELHIQGNRLAMIPPELGNLELVGSKQVLRLEHNPFIPRIEEQFEANGAAGVWAHIRTDDYRYFFGRQEPSSTPVPPKRNKEKKVSRKGIQQA | not soluble |
| MPKGSGKVIAQNKKAFHDYFIEETYEAGLVLQGTEIKSIRAGRVNLKDAFARVHNGEVWVHNMHISTYEQGNRFNHDPLRTRKLLLHKKEIEKLAGASKETGYALVPVRIYLKNGFAKMALGLAKGKKQYDKRHDLKEKEAKREIARAFRDRQKM | not soluble |
| MPKKEKMAKTPLSDEKQLLLFQQKLLAEEEMAKKKERLLSQFLKDKLAKEEHNSALNLNKINTQWRTVLREVKTRELHKDIEILSQTFERVVDCKDNVIKSLAKDLSEAEEQYAHALRSHLHNVDQLLALQRHRLSLLEESYNMELEALTKEFETERKTIIDQHEKEIHYLQDIFMAMEQNYIDSEYESKLEFQSMWNDLKNMNLEEKHFLRLHLENRVEDLWRKFQDVLKNYTDATEDRKAAFETLQVKDEKSSKEIEVQMKKIQKLQDAITISKGKIMIHSRESEDENRYIRNDKELVLVQLRKLKAQRTQARAASQKNLVRLTLESNATLKALRKIVDKGEKILKLAEICRKFETEEEKVLPFYSSVLTPKEQEGIQKNNLEELTEELTKVMVDYIGMENFWKRYNKVKLEQLSLQHRRAQLLDINGKLREMLKQYLDGISVSDEVLSQLNPLFIVNYQSNLLQPLSIRIAHPGDKQHPTT | soluble |
| MPKNKGKGGKNRRRGKNDSEGDKRELVFKEEGQEYGQVQRMLGNGRLDAYCFDGQKRLCHIRGKMRKKVWVNPGDIVLVSLRDFQDSKGDIILKYTPDEARALKSKGEIPETTKINE | soluble |
| MPLEAGLLEILACPACHAPLEERDAELICTGQDCGLAYPVRDGIPVLLVDEARRPEAAALEHHHHHH | not soluble |
| MPLEASELKPTAGPLEASELKPTAGPLEASELKPTAGPLEASELKPTAGPLEASELKPTAGPLEASELKPTAGPLEASELKPTAGMPSVQQDITHPKELLISTNWLNRKDVPFMNNQEQQIQNVLNTLRDPDTIRTRSHRILNLAKQNRLEHFSLNPERMTTTASYIVDIITSRYPELDIPYHSRWRHFEMDGLPRIHNLRKQLDPISPSEWGKILYELVIISVFLDAGAGPLWRYKEALTEKEYSRSEGLALASLYLYESGAFSADPTNPFRVDAERLLDFKETDLIKGFQVSSTNLLEGIPGRVSLLNRLGEIIHRKEHCFNRRKRLGEFYTYVESLQDNKILPTTKLFEAVLETFNDIWPVRLIYHGVSLGDVWIHSALKTNEAGSEYIPFHKLSQWLTYSLVEPLEQTGIDIADLDVLTGLPEYRNGGLLIDTELLKVRNNKILEQPQDPGSEPIVEWRALTVALLDELALLIRQQLNMNAESLPLAKILQGGTWEAGRQIAQKKRINGTPPIEIISDGTIFLEHHHHHH | not soluble |
| MPLKLTTYYQGSEIPDFPGTNTFHSKELFQIYEETPGYTPLLIMASEDGKPVARLLAAIRKSIRMFPPAFIKRCEIYGTGEYLTAEADKERIFGEMLEHLTTEALRNSFLIEFRNLENAMFGYKYFRSNRYFPVNWLRVRNSLHGIENAEQRFSPSRIRQIKKGLKNGAKVDEARTVEEIREFSNMLRHLYSSRIRKHFPNIIFFQHMDTRLIHSRQAKIFIVRYKDKIIGGSACIYSGNDAYLWFSGGMRKTYALQYPGILAVWKALQDAHQNGFRHMEFMDAGLPFKKHGYRDFVLRFGGKQSSTRRWFRFRWQWLNDLLIKIYV | not soluble |
